Source: patent US20220332804A1 (CSL INNOVATION, published 2022)
Substitutions are numbered along the chain they refer to.

Tests used:
Experiment in all cases: SPR, mAb captured, C2 mutant analyte;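 note: Anti-C2 mAbs captured on goat anti-human IgG Biacore CM5 chips, alanine or serine C2 surface mutants flowed over at 37 °C, double-referenced sensorgrams fitted to a 1:1 binding model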
[1] = molecular target: T1, human C2 G414A (human, UniProt P06681 21-752)
T1 sequence: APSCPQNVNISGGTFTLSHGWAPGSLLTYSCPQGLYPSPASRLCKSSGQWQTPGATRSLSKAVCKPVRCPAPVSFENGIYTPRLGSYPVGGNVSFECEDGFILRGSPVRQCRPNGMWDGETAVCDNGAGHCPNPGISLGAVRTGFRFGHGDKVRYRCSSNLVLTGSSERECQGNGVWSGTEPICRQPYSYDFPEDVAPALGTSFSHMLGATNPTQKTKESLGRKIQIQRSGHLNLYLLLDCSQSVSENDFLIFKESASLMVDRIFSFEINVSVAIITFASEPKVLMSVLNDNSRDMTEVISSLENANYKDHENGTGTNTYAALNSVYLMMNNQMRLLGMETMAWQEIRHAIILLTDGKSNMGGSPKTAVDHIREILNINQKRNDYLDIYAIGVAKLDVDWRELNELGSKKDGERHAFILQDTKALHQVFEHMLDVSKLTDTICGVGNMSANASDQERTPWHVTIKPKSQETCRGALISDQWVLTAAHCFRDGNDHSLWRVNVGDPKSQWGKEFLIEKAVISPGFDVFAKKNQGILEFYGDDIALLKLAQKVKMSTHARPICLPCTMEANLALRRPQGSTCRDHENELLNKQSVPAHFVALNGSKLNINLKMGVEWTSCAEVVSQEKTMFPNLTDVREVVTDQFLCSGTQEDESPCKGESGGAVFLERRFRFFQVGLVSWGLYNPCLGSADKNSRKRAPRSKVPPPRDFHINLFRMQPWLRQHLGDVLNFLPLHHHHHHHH

[2] = molecular target: T2, human C2 S278A (human, UniProt P06681 21-752)
T2 sequence: T1 sequence with S258A, A394G

[3] = molecular target: T3, human C2 K457A (human, UniProt P06681 21-752)
T3 sequence: T1 sequence with A394G, K437A

[4] = molecular target: T4, human C2 G427A (human, UniProt P06681 21-752)
T4 sequence: T1 sequence with A394G, G407A

B1: RF16-214 (antibody, V domains shown)
VH: EVQLLESGGGLVQPGGSLRLSCAASGFTFSWYQMMWVRQAPGKGLEWVSRIYPSGGGTAYADSVKGRFTISRDNSKNTLYLQMNSLRAEDTAVYYCARDAGYGDNWGQGTLVTVSS
VL: QSALTQPPSVSVSPGQTASITCSGDKLGEKYASWYQQKAGQSPVMVIYQDRKRPSGIPERFSGSNSGNTATLTISGTQAMDEADYYCQAWDTRAVVFGGGTKLTVLG
Kd [1]: 14.8 nM | Kd [2]: 34.5 nM | Kd [3]: 41.8 nM | Kd [4]: 8.8 nM
